Source: paper PMC3896397

Target: Recombinant Human VEGF-A165 (human)
Assay: ELISA; VEGF 165 (0.5 ug) on 96-well plates; serial dilutions (0.05 to 10 uM) of Flag-tagged HSPB1 wild type or C-terminal HSPB1 in PBS plus 1% BSA, 37°C, 2 hours; detected with anti-flag monoclonal antibody; Kd by Scatchard analysis

| Kd [µM] | Substance |
| --- | --- |
| 10.8 | Flag-tagged secretory wild-type HSPB1 (from UniProt P04792 1-205) (natural protein) |
| 0.78 | C-terminal HSPB1 fragment, secretory HSPB1 (59-203) (from UniProt P04792 59-203) (domain or fragment) |
